Target: Fervidobacterium islandicum AW‐1 SufS family cysteine desulfurase (FiSufS) (Fervidobacterium islandicum AW-1)
Assay: SEC

Substance: Fervidobacterium islandicum AW‐1 SufS family cysteine desulfurase (FiSufS) (enzyme)
- stoichiometry N: 2
